Measurements reported in patent US20220119489A1, “COMPOSITIONS AND METHODS FOR TREATING MUSCULAR DYSTROPHY AND RELATED DISORDERS” (CHILDREN'S MEDICAL CENTER CORPORATION, priority 2019, published 2022).

target: CD82 (mouse) (mouse) (UniProt P40237); assay: IP with anti CD82 antibodies, mouse muscle tissue, mass spectrometry

Sequence of Annexin A2 (human) (P07355 2-339 limits assumed): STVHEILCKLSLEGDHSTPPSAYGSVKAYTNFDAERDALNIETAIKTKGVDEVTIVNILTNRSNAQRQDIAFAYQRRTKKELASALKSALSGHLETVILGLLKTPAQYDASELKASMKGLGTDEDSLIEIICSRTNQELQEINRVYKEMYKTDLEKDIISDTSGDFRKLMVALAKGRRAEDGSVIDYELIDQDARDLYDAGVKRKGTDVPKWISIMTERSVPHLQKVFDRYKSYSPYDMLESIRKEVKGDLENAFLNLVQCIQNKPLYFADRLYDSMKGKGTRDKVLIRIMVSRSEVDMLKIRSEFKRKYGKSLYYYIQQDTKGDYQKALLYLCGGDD

Substance	Total	Unique
G3P_MOUSE (from UniProt P16858) (enzyme)	2	2
KV2A7_MOUSE	2	2
TBA1A_MOUSE (from UniProt P68369)	3	3

target: T1, CD82 polypeptide (human) (human); assay: IP with anti CD82 antibodies, human myotubes, mass spectrometry
T1 sequence (P27701 whole entry, looked up): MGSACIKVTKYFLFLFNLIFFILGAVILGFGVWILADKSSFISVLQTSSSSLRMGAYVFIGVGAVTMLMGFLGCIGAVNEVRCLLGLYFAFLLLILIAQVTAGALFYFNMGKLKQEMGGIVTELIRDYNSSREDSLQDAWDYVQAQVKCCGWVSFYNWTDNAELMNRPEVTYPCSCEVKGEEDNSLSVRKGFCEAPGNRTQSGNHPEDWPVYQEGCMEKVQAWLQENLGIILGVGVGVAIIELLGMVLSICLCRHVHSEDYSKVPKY

Substance	Total	Unique
Filamin A (from UniProt P21333)	30	30
Filamin B (from UniProt O75369)	3	3
nonmuscle myosin IIA (from UniProt P35579)	77	64

Results, then the substance that gave them:

Total	Unique	Substance
5	5	Annexin A2 (human) (from UniProt P07355)
32	31	Dysferlin (from UniProt O75923)
24	24	Filamin C (from UniProt Q14315)
32	31	Myoferlin (from UniProt Q9NZM1)
3	3	profilin (from UniProt P07737)
